Test system: FLP recombinase
Test: cell_activity
Conditions: excision of y+ donor flanked by FRTs (33,668/33,790 w+ progeny lost y+), with I-SceI co-expressed in Drosophila

FRT (FLP recombination target) from yeast 2 micron plasmid
activity: 99.6%

Source: patent US20040068761
